Assay: protease stability score; higher = more stable; yeast display proteolysis, trypsin and chymotrypsin;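 also: relative to predicted unfolded state with 0 unfolded-like and 1 meaning tenfold more protease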

Sequence | protease stability score
DEEEEHAEHMLRLWFHILHTGDWEDLVRLIDPNARLRVGDKTFHGMERLVRRHLEHKRRLGLDNFDFQVDNFEVYGDKIDIDVTENINGREYKVIIHIIVINGRVKNMHIKIN | 0.925
DEEEEHAITFMKILIHLWITGDWETLKRLADPDTKVIERFNGKRVEIHGRELWSKIRKEIIDQLRIRIHPHHVSVVGDKLYSDEHLVFHYNGRDIRLDIHLEMVVVNGRMKHFRFHEE | 1.06
DEEEEHFKWLVKLIFDAYLTGDEEVLYERADPNVRIDFNGVELHGREEMQRHLEHLMKKFKGLRIELKHFHIQGDKMFFQTEYRYNGKTVEARLFFDVVNGRLKRIIIEHR | 1.48
DEEEEHFRRLLERFLHFWRTGDEDDYHKLADPHARSEVIIGDFRIESHGRHALEIWLRYMGIDHIHLEDSDSQGNKVHVHMHVKVGDKEHHVIIILIVIDGRVHQLTISVRRT | 1.13
DEEEEHLHSVAKRFLHSVETGDWKDLYELLDPHARFESVFNGRKVEHHGREEARKWFQEWVERFKNMRLHIEEVRTQGDKTHVDSRVHYGDKTINTIIHIVIVNGKVHHVEIRVK | 2.2
DEEEEHLRKIMEEMTRANETGDFESWARNADPDYQLNVGDKRKHGREDWQEDLKRVDHLRLEVRIRRMRDVDGRIEVVGDLIIFIKVGEYEFESHSKVIIYIIKINGRWFIKSIEFL | 1
DEEEEHLRKMTKLLWDQIHTGDEKDFLRLADPNARFEVEINGRKYEAHGREEIKHMLHDILELLGIDHVRLRDLELQGNKVILHSDTHVNGQDSKMRIEILIVNGRLKSFKIQTL | 0.995
DEEEEHLRTMWEIWMHALRTGDEDFMTNLADPNVRVLILQGDKEEESHGRDELSRLLREIRIEEFTITDVRIQGDKSEADVHVVGQIDGRRTRTKIRISFIIFNGRLHSIRFEIH | 2.2
DEEEEHMKHHLDLWIKLVQTGNEEHIARMIDPNARFDINGKEEHGRESFRKHLHEILKFFGVDRFHHEIKELRVIDGRVHSVTLWEINGQRLDTRIHAHKVNGVWLVHSLEIK | 1.14
DEEEEHMRKMHEKFRKIRHTGNFEDYFRLLDPNARMHVNGQNMHGRDVVSKWFKHFVEEIRIEHFEIHDVKYIDGRSHEDGWLVGTIDGKHFDSRTEIILIVVDGKLKQFHIHIR | 0.489
DEEEEHSKKMTDWWLHAVLTGDEEKLRQMIDPDVKLHINGKDHVGREEAVKSLRELLHRLGVNHIHVERMDVVGDKVILNFHLRVGDKEHETRVILHIYNGRIKEIRIHIH | 2.16
DEEEEHSKLADEEMLHNLLTGNEEHINKMADPNVRIVIGDKELHGMERWREEMRFFKGARIEIKRSRIFTQGDKMHSEVDGTLNFNGRRVEILIVLVVRKVNGRWRIEMISYHIV | 1.57
DEEEEHSKNFLRLWINLWLTGDWRNLLKLADPNAKVVINGVRIHGMEFLVRLLHEEMEQVKNMRIHIHDRRLQGDKSTEILILHFDGVFYETRFHIDIVNGKVRRFQEERE | 0.181
DEEEEHWKHIAKEYLDNFRTGDWKNFMDNADPDYRFILSQGNKEDNHHGMHFFVEWILRFLKKFKNATFVLRHFSIQGNKIHMELDITVGDKRIDTKINIEIIDGVVHTIEIRLD | 0.821
DEEEEIAHEMVRELVKVLETGDEEIWERLMDPNDRIHIGDKNLVGMDETRKWINEFMERIDHIRVRVRSIHPVDGRANLDTEITTHYNGRTTTYKVLLIVVKVNGRWVLESMHIK | 1.93
DEEEEIARKYITLLVKSFLTGDERSIERLVDPHYRHDVGDKHVHGRERFTRHIYENLIRVKGIRVEVIVEHIRVINGRVEVDMQIHWKQGEFQILITSRMHVEKVDGRWLIREVEID | 0.976
DEEEEIARRIFKIFVHNVLTGDEDSLRKMIDPNTRLHVDGQELHGREQALTFLHEMRIDHMELRELRVIDGRIISHIRVDGEINGRRRDIQTEIILYKVDGRWVIRQMRFQ | 2.39
DEEEEIARRITELWLTYMMTGDEDALIHMADPNVKSILIINGRHVHYHGREYWTKMLRDLGFKHTRIRRVDLQGDYSRLDIEDDFNGVYTRSELRLKVVNGRFHTIEINIH | 1.08

Sequence | protease stability score
DEEEEIFRHLFKLFVDATETGDEHILKELLDPHTRIHVNGQDFHGRENAIHFWRHMRIDEIRLKEIEVQGDKIHITGHVRGQIDGQQVRTDFELIMVKIDGRWKIHSEIYH | 2
DEEEEIIKEQLRILKKNLETGDWKAVLKMFDPNVREDVNGQTLIGRELWAQIFVEMGVDHIIERRVDIQGDKIRLYGQLDQGDKKHTTHIHARKVDGRWTFESVHVR | 1.08
DEEEEILREFSEKWLHAFRTGDWRDIWHLMDPHVKVIIFVDGREKEIHGREEYATQLHERLEKVKGMRFRDKDMDHVNGRLVINVTVHQGDKHKEFRIIIDVVNGRVKRIEIHLH | 2.06
DEEEEILRRFIEEWLYAELTGDFHVLHELFDPNVRIEINGVDKHGMHIVIKELLEFYRRVKNLRVEFELRDEKRFDGVVIIIGVRRISINGQTHEEETILVIVKVNGRWVMKEIWFN | 1.64
DEEEEILRTFIRLMHEAWLTGDWKTFEEMLDPHARLHINGKDLHGREQMARRIEELGIKHVEDKDMETQGNKIHLKQIVYVNGRTFELRQFIIKVNGRWVIQHVEVITR | 1.38
DEEEEIMRKIIEDLRHNTETGDEELMQDLMDPHARIDIDGQKLHGREYVRFLHDEFKGATWIWREVRLQGDKLDVHVEVRFDGRTLHVDIHYVIVNGRTKEIRVHWD | 1.28
DEEEEINKKIVEDLFRALITGDEERQLKNMDPNTKIRTNVNGQDYIFHGRDLWVTLWNRFKNLRVEIESVHRQGNKIHFDTRLLFNGRIFQYHIVVISVNGQTKELKEHDE | 1.24
DEEEEISRRIVKLLIELFETGDEEKWKELADPDARVDIDGVDSVGRKHAIHLLHEWKEQLGFKHHRIHSIHVYGEFIDVDGLLIVNGRKIRIHFHFIVVNGRLKEQRLHIE | 1.3
DEEEEIVMKNARDLIHLTQTGDFEKQRHLLDPHVLVVLVQGDKRIEQHGWHFWKYLMKEIRIKHIRIDHVEAQGNKAQVRGTVDGNINGRDTHWEFELTFVFIDGRIRTIDIRID | 1.4
DEEEEKAKHVLELWSRAMLTGDEDEYKKLADPHTRLIVDGQTFHGWENFTKSHNQIKNIKIDDVHVENHHIQGNKMFVDLRFEMEFNGRILHKETHLFIEKIDGKWLIRTQEIH | 0.767
DEEEEKDRILVEIWKRLVLTGDEEELLNLADPEARQTVHFNGKEVRNVGMERVIEHNREYLRLMGVDHITVDRSRVVNGRVENHHRVFVGEKEIRFEIEVTIINGRLRSVTIRVR | 0.379
DEEEEKLKKWADDTIQLLRTGDEEDLYKMLDPHARTEVNGRELHGREEMFKVLKTIWDKVKGIKFLHRDHRLYNGRVEIHGELVIGDKIHKVHIIVLIINGKIKEVEIHIH | 1.39
DEEEEKLRELIRIFIEDWKTGDFDSLAHLLDPNARLDIHINGVHLHYHGREKILEFLWRWFERFKNARVELKRIRIVNGRSEIDSETTFNGRSSDMEIDIVIINGRVRSERFKVG | 1.47
DEEEEKLRFAVELFEETFRTGDEKLKEHLADPDVRVHYGDFEYHGRETLERWTRFVKGVKVELKSIDIINGVLDLDGTLHFNGRTFDTRYLALKINGRWILKRVIIH | 1.49
DEEEEKSKRMLEIIIHAVMTGDFQHLLDNMDPHVKLDIDGVDLHGRESAEEFVKKVKNLTLHDWKLDHWHIQGDKVTMHVTIDGLYNGKKERTRVIIIALKINGQWHIKSMKID | 1.9
DEEEELAHKATEHWLHLVRTGDEEKISSQADPNTKVEIRQGDKRIDSHGMEHFSELLRKLIEDYGVNHIHVNIVRLIDGRVHVNSLVHVGDKEIKIHIWADKVNGRWIHRNMHVHVG | 0.547
DEEEELAIEVVQRWVEDFLTGDFRSFRELADPNTKTRINGQEMHGRHVYVEWFVKWLKQIDHHDFKLHDVKVINGQVHTDGEMRLEVNGREHRSRVELILVIINGRLHMVELRIK | 2.13
DEEEELAIHFWRLFLHLIITGDWERLTELMDPNVRIDINGKEIHGRELASEHLRKLMEHARFRDHHLEDVKIYDGVVEMHGRIDGRFDGKDVDTRMIVYTVKVNGKWLLKRVVHL | 2.32

— the NTF2 design screens of Basanta et al. (2020)
